Measured values taken from patent US20170129940A1.

How the values were obtained:
Details in all cases: remark: other sources report otherwise
[1] = biological target: T1, hCMV gH + gL + UL128 + UL130 + UL131A (co-expressed in HEK293T cells) (human cytomegalovirus), P12824; assay: competitor: 2F4-biotin; cell staining
[2] = biological target: T1, hCMV gH + gL + UL128 + UL130 + UL131A …; assay: competitor: 6G4-biotin; cell staining
[3] = biological target: T1, hCMV gH + gL + UL128 + UL130 + UL131A …; assay: competitor: 9I6-biotin; cell staining
[4] = biological target: T1, hCMV gH + gL + UL128 + UL130 + UL131A …; assay: competitor: 1F11-biotin; cell staining
[5] = biological target: T1, hCMV gH + gL + UL128 + UL130 + UL131A …; assay: competitor: 4I22-biotin; cell staining
[6] = biological target: T1, hCMV gH + gL + UL128 + UL130 + UL131A …; assay: competitor: 2C12-biotin; cell staining
[7] = biological target: T1, hCMV gH + gL + UL128 + UL130 + UL131A …; assay: competitor: 8C15-biotin; cell staining
[8] = biological target: T1, hCMV gH + gL + UL128 + UL130 + UL131A …; assay: competitor: 8I21-biotin; cell staining
[9] = biological target: T1, hCMV gH + gL + UL128 + UL130 + UL131A …; assay: competitor: 8J16-biotin; cell staining
[10] = biological target: T1, hCMV gH + gL + UL128 + UL130 + UL131A …; assay: competitor: 5A2-biotin; cell staining
[11] = biological target: T1, hCMV gH + gL + UL128 + UL130 + UL131A …; assay: competitor: 10F7-biotin; cell staining
[12] = biological target: T1, hCMV gH + gL + UL128 + UL130 + UL131A …; assay: competitor: 15D8-biotin; cell staining
[13] = biological target: T1, hCMV gH + gL + UL128 + UL130 + UL131A …; assay: competitor: 4N10-biotin; cell staining

B1: 8J16 (antibody, V domains shown)
VH: QVQLQESGPGLVKPSETLSLTCSVSGGFTSSYYWSWIRQAPGKGLEWIGYVYYGESTDYNPSLKSRATISIDTSKNQFSLKLSSVTAADTAVYYCAREVDKRGFDYWGQGALVTVSS
VL: EIVLTQSPGTLSLSPGERATLSCRASQSVSGGYLAWYQQEPGQAPRLVIYGASSRATGIPDRFSASGSGTDFTLTITRLEPEDFAVYYCQQYGRTPLTFGGGTKVEIK
- Inhibition of binding (%) [1]: 0%
- Inhibition of binding (%) [2]: 100%
- Inhibition of binding (%) [3]: 70%
- Inhibition of binding (%) [4]: 0%
- Inhibition of binding (%) [5]: 0%
- Inhibition of binding (%) [6]: 100%
- Inhibition of binding (%) [7]: 100%
- Inhibition of binding (%) [8]: 0%
- Inhibition of binding (%) [9]: 100%

B2: 2C12 (antibody, V domains shown)
VH: QITLRESGPTLVKPTQTLTLTCTFSGFSLNTNGVGVGWIRQPPGKALEWLALIYWNGNEGYSPSLKSRLTITKDTSKNQVVLTMTNMDPVDTATYYCVHWPQGLTTVTRLAFDIWGQGTMVTVSS
VL: QSALTQPRSVSGSPGQSVTISCTGTTSDVGRYNFVSWYQQHPGKAPKLLMYDVSQRPSGVPSRFSGSKSGNTASLTISGLQAEDEAVFYCCSYAGGNFFSYVFGTGTKVTVL
- Inhibition of binding (%) [1]: 0%
- Inhibition of binding (%) [10]: 0%
- Inhibition of binding (%) [2]: 100%
- Inhibition of binding (%) [3]: 100%
- Inhibition of binding (%) [11]: 0%
- Inhibition of binding (%) [12]: 0%
- Inhibition of binding (%) [4]: 0%
- Inhibition of binding (%) [5]: 0%
- Inhibition of binding (%) [13]: 0%
- Inhibition of binding (%) [6]: 100%
- Inhibition of binding (%) [7]: 100%
- Inhibition of binding (%) [8]: 0%
- Inhibition of binding (%) [9]: 100%

B3: 9I6 (antibody, V domains shown)
VH: EVQLVQSGAEVKKPGESLKISCRESGDTFPAYWIAWVRQMPGKGLEWMGIIYPIDSETTYSPSFQGQVTISADKSINTAYLQWSSLKASDSAIYYCARGTSTGLREAFHIWGQGTMVTVSS
VL: DVVMTQSPLSLAVTLGQPAYISCRSSQSLGYSDGNTYLNWFQQRPGQSPRRLIYEVSNRDSGVPDRFSGSGSGTDFTLKISRVEAEDVGTYYCMQGTHWPPMCSFGQGTKLEIK
- Inhibition of binding (%) [1]: 0%
- Inhibition of binding (%) [2]: 100%
- Inhibition of binding (%) [3]: 100%
- Inhibition of binding (%) [4]: 0%
- Inhibition of binding (%) [5]: 0%
- Inhibition of binding (%) [6]: 100%
- Inhibition of binding (%) [7]: 100%
- Inhibition of binding (%) [8]: 0%
- Inhibition of binding (%) [9]: 100%
